The target in the test is VieS-C (untagged cytoplasmic portion of the sensor kinase VieS) (UniProt O68317). As to the kind of experiment: composition-gradient MALS (CG-MALS).

Broadly, the Kd is the concentration at which binding is half-saturated. Higher therefore signals lower affinity. Regarding “VieB D62E (His6 tag removed) (from UniProt O68319 1-553) (natural protein)”, the Kd was 197 nM and the stoichiometry N (VieB D62E monomer per VieS-C dimer) is 1.

Values taken from article PMC4352251, “The VieB auxiliary protein negatively regulates the VieSA signal transduction system in Vibrio cholerae” (BMC Microbiology, 2015).
